Test results published in publication PMC3207847, “Characterization of a Novel Type of HIV-1 Particle Assembly Inhibitor Using a Quantitative Luciferase-Vpr Packaging-Based Assay” (PLoS ONE, 2011).

Molecular target: HIV-1 Gag precursor Pr55Gag, full-length wild type (HIV-1) (UniProt P03348)
Assay: co-sedimentation

Substance | copies of Gag per LucVpr molecule in VLP (copies of Gag per LucVpr molecule) | copies of Gag per Vpr molecule in VLP (copies of Gag per Vpr molecule)
luciferase-Vpr fusion protein (LucVpr) (from UniProt P05928 1-96) (natural protein) | 4.92 | 
oligohistidine-tagged HIV-1 Vpr protein (from UniProt P05928 1-96) (natural protein) |  | 5.6
